# Measured values as given in IntAct's records for PubMed 36435842.
# B1: Golgi phosphoprotein 3 homolog sauron (Drosophila melanogaster (Fruit fly)), Q9VQ93 (parent)
# chain: MNRSDGLVRRSVKPRENGGAEGGLNANTPDDNQDALDNLKDQEDNIDDGDSKETRLTLMEEVLLLGLKDKEGYTSFWNDCISSGLRGCILIELGLRGRVMIEKSGMRRRGLCTRKLILKSDQQTGDVLLDEALKHIKETDPPETVQSWIEYLSGETWNPLKLRYQLKNVRERLAKNLVEKGVLTTEKQNFLLFDMTTHPLSDNVVKCRLVKKIQDSVLSKWVNDPQRMDKRMLALIFLAHASDVIENAFAPLNDDDYEVAMKRVRELLDLDFEAESAKPNANEILWAVFMAFTK
# partner: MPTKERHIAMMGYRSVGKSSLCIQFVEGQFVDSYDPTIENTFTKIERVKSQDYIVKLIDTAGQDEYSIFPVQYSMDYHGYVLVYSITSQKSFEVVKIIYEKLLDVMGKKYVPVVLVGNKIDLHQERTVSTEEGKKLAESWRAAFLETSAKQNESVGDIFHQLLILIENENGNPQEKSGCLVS
# Variants of: B1
# Conditions: with rheb_drome Rheb
row,Variant,effect of a mutation on the interaction
1,K167A;R170L,disrupting interaction strength
